For experiment [1], the target named is T1, Recombinant Mouse 5′-Nucleotidase/CD73 Protein, CF (R&D Systems Cat: 4488-EN) (mouse, UniProt Q61503 29-549, limits assumed).
T1 construct: Bought protein; also called Mouse CD73-His; recombinant mouse CD73; not shown: His tag
T1 sequence (looked up): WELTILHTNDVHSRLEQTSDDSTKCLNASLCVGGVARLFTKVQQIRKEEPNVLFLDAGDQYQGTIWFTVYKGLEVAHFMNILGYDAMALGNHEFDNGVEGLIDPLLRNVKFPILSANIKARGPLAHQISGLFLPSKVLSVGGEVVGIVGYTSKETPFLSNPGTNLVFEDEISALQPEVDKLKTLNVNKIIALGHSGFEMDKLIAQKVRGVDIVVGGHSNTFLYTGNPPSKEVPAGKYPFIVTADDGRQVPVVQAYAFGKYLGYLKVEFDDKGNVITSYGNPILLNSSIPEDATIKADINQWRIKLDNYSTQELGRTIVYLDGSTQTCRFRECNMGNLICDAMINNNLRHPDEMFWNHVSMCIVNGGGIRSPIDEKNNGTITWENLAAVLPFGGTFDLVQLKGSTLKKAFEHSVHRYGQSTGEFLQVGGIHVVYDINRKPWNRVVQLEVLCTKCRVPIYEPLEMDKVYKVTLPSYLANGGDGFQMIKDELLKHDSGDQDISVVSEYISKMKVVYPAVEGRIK
As to the kind of experiment: Biacore SPR, His-tagged CD73 captured by anti-His antibody on CM5 chip, antibody as analyte. As to the method: (§1) The anti-His Ab was directly immobilized onto a CM5 chip surface by amine coupling. The His-tagged human CD73/His, cynomolgus monkey CD73/His, mouse CD73/His or rat CD73/His was flowed over and captured at a desired resonance unit (RU) for an Rmax of 20. Antibody analyte concentrations in serial dilutions of IgG or Fab were flowed over at 60 μL/min. The sensorgrams were analyzed using the manufacturer's software for a 1:1 binding model.

Experiment [2] addresses T2, recombinant rat CD73 (Sino Biological 80375-R08H) (rat, UniProt P21588 29-551).
T2 construct: Bought protein; also called rCD73; rat CD73/His
T2 sequence (looked up): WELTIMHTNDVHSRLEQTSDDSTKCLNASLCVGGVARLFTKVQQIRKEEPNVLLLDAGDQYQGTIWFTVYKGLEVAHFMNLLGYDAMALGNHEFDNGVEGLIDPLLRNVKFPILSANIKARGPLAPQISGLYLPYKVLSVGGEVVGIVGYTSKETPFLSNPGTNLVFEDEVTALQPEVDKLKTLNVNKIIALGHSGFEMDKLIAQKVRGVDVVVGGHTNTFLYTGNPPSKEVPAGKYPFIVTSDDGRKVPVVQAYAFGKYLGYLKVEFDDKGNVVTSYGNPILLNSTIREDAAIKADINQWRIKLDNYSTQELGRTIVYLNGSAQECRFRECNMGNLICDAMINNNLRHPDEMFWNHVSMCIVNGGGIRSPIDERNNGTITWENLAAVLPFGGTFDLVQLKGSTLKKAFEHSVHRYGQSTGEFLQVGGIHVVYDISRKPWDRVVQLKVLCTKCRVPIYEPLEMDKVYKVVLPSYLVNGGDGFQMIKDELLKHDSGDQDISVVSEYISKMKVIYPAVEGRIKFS
The experiment is described as above. Here is the method:
as §1

The target in experiment [3] is T3, Cynomolgus CD73/NT5E Protein (His Tag) (Sino Biological Cat: 90192-C08H-50) (cynomolgus monkey, UniProt A0A2K5V5U7 27-547).
T3 construct: treated as one protein; also called Cynomolgus CD73-His; recombinant cynomolgus monkey CD73; not shown: His tag
T3 sequence: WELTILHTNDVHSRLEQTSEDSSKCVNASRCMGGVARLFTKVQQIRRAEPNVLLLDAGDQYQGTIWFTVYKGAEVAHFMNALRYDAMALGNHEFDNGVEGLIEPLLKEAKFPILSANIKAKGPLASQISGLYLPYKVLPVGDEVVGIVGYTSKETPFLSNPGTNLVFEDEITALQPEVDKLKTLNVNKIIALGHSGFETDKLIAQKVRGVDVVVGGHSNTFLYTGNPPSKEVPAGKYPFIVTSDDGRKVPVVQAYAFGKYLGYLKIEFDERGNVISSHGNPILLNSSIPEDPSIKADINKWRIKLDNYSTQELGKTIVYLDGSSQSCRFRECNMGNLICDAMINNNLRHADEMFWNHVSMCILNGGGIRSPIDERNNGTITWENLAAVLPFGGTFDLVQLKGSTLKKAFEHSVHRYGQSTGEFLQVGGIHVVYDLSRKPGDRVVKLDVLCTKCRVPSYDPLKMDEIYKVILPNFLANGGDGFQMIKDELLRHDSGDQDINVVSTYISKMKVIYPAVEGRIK
The experiment in a line: Biacore SPR, His-tagged CD73 captured by anti-His antibody on CM5 chip, IgG as analyte, 1:1 model. As to the method:
as §1
(§2) Therefore, given that 1:1 bidentate binding will favor avidity, the whole Ab affinities were used rather than Fab measurements.

Experiment [4] concerns the target T4, Recombinant Human 5′-Nucleotidase/CD73 Protein, CF (R&D Systems Cat: 5795-EN) (human, UniProt P21589 27-547).
T4 construct: Bought protein; also called Human CD73-His; recombinant human CD73; not shown: His tag
T4 sequence (looked up): T3 sequence with T199M, A350T, I466V
The description is as above. As to the method: as §1, §2

Changes are numbered by the printed parent chain. Names may count otherwise.

This is an account of results in US20240141060A1 (Novartis, published 2024).

B1: anti-CD73 antibody 373.A (antibody, human IgG4 S228P, kappa, V domains shown)
VH: EVQLLESGGGLVQPGGSLRLSCAASGFTFHRYAMSWVRQAPGKGLEWVSAISGSGMNTYYADSVKGRFTISRDNSKNTLYLQMNSLRAEDTAVYYCARGGLYGSGSYLSDFDLWGRGTLVTVSS
VL: EIVLTQSPATLSVSPGERATLSCRASQSVGSNLAWYQQKPGQAPRLLIYGASTRATGIPARFSGSGSGTEFTLTISSLQSEDFAVYYCQQHNAFPYTFGGGTKVEIKR
notes: IgG4 S228P format
For the molecule B1, the binding result in experiment [1] and in experiment [2] was “no binding” each time. Besides, the Kd turned out to be 0.068 nM in experiment [3] and 0.991 nM in experiment [4].
